Results published in patent US12365732 (23ANDME, dated 2025).

T1: hu-CD96 isoform 1 on HEK293T cells (human, UniProt P40200 22-585)
T1 construct: Origene RC213845, transient expression; also called HEK293T-CD96 (iso1)
T1 sequence: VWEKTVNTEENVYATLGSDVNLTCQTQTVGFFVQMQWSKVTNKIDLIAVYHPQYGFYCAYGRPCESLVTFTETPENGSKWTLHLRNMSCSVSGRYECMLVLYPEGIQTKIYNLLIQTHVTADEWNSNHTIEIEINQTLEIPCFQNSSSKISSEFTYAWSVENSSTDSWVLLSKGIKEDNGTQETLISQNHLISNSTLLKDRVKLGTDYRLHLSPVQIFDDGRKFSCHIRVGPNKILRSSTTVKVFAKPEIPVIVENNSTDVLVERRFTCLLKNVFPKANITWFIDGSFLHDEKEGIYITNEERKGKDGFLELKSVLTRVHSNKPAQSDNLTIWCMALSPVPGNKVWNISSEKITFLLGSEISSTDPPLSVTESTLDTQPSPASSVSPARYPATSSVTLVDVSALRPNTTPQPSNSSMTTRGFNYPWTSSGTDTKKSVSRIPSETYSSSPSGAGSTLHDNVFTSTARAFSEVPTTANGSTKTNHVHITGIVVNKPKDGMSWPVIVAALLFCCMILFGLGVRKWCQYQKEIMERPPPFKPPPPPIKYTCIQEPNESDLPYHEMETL

T2: hu-CD96 isoform 2 on CHO cells (human, UniProt P40200 22-585)
T2 construct: also called CHO-CD96 (isoform 2); CD96-CHOs
T2 sequence: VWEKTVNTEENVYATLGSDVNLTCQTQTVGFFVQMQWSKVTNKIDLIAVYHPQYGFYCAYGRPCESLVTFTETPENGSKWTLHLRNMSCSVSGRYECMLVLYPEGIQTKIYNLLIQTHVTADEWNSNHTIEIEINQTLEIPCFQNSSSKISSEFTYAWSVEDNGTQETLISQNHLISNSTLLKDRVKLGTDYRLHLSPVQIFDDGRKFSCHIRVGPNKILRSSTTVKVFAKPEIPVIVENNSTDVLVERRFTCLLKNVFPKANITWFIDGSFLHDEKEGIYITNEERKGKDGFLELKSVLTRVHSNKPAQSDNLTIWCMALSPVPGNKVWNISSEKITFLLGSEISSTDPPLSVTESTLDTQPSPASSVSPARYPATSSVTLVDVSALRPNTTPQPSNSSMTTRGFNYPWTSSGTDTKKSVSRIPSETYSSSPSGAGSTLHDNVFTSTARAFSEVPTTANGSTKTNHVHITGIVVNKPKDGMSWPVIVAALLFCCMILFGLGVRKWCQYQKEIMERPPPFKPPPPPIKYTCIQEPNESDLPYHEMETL

T3: cynomolgus monkey CD96 on cynomolgus monkey PBMCs (cynomolgus monkey, UniProt A0A2K5TWV6 22-569)
T3 construct: whole, on cells
T3 sequence: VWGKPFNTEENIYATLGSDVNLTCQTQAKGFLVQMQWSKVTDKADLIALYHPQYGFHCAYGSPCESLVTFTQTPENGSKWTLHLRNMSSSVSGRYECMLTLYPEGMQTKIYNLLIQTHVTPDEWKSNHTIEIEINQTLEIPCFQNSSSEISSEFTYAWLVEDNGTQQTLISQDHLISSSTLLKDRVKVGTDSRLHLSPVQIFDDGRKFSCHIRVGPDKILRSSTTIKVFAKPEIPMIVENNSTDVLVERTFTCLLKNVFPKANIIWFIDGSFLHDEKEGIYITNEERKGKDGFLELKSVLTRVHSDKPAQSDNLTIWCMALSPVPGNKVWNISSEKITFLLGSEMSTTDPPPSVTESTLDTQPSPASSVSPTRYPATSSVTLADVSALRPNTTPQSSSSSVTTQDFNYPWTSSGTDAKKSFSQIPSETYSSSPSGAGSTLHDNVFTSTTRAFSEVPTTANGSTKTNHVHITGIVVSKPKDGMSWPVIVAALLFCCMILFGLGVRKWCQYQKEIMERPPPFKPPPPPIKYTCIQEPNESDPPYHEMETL


Assays:
[1] = molecular target: T1, hu-CD96 isoform 1 on HEK293T cells; assay: FACS, Ab 2 nM
Protocol: Isoform 1 of hu-CD96 (Origene, catalog #RC213845) was transiently expressed in HEK293T cells following standard lipofectamine or Fugene transfection protocol. […] Cells were washed, and binding was detected by incubation with anti-mouse IgG-FITC (Biolegend, catalog #406001) for 20 minutes at 4° C. Cell binding was analyzed by flow cytometry with a CytoFLEX (Beckman Coulter). Binding curves were calculated as a percentage of cells positive for bound antibody.

[2] = molecular target: T2, hu-CD96 isoform 2 on CHO cells; assay: FACS, CD155-Fc-FLAG 10 nM, Ab 0.0064 nM
Protocol: (§1) CHO cells stably expressing isoform 2 of hu-CD96 (Origene, catalog #RC221005) were incubated with anti-CD96 antibodies for 20 minutes at 4° C. The cells were washed, and then incubated with 10 nM human CD155-Fc-FLAG for 30 minutes at 4° C. Cells were washed, and then human CD155-Fc-FLAG binding was detected by incubation with anti-FLAG-APC (Columbia Biosciences, catalog #D3-1718-1MG) for 20 minutes at 4° C. Cell binding was analyzed by flow cytometry with a CytoFLEX (Beckman Coulter). CD155 binding is represented as median fluorescence intensity (MedFI).
(§2) As shown in Table 20 (below), the anti-CD96 antibodies, mAb1.v7.NGS8, mAb1.v7.NGS9, mAb1.v7.NGS10, mAb1.v7.NGS11, and h10G1 inhibited soluble hu-CD155 binding to CD96-expressing CHO cells dose-dependently and potently. The antibody NK92.39 (Fuchs et al., 2004; Biolegend catalog #338405) inhibited receptor binding similarly.

[3] = molecular target: T2, hu-CD96 isoform 2 on CHO cells; assay: FACS, CD155-Fc-FLAG 10 nM, Ab 0.8 nM
Protocol: as §1, §2

[4] = molecular target: T3, cynomolgus monkey CD96 on cynomolgus …; assay: FACS, Ab 0.128 nM
Protocol: The ability of the anti-CD96 antibodies to bind primary immune cells from human and cynomolgus monkey with lower level of receptor expression was measured. Human PBMCs (StemCell Technologies, catalog #70025) and cynomolgus monkey PBMCs (Primate Biologicals, catalog #CM-MC) were incubated with human TruStain FcX (Biolegend, catalog #422302) for 10 minutes at 4° C., followed by incubation with an anti-CD96 antibody for 20 minutes at 4° C. Cells were washed and the anti-CD96 antibody binding was detected by incubation with anti-mouse IgG-PE (Thermo Fisher, catalog #M30204) or anti-human IgG (Fab) 2-PE (Thermo Fisher, catalog #H10104) for 20 minutes at 4° C. Cells were washed, and immune subtypes were labeled with anti-CD3 (BD, catalog #557705), anti-CD4 (Biolegend, catalog #317424) and anti-CD8 (BD, catalog #557760) for 20 minutes at 4° C. Cell binding was analyzed by flow cytometry with a CytoFLEX (Beckman Coulter). Binding curves were calculated as a percentage of cells positive for bound antibody in the cell type of interest.

Row | Binder | % positive [1] | CD155-Fc binding (MedFI) [2] | CD155-Fc binding (MedFI) [3] | % positive [4]
1 | 7E5, purified hybridoma antibody (antibody, V domains shown, murine hybridoma IgG) VH: QVQLKESGPGLVAPSQSLSIICTVSGFSLTNYGIHWIRQPPGKGLEWLGIIWAGGSTNYNSALMSRLTISKDNSKSQVFLKMNSLQTNDTAIYYCARVSMMGFAYWGQGTLVTVSA VL: QAVVTQESALTTSPGETVTLTCRSSTGAVTTSNYANWVQEKPDHLFTGLIGGTNNRAPGVPARFSGSLIGDKAALTITGAQTEDEAIYFCSLWYGSHWVFGGGTKLTVL | 37.1% |  |  | 
2 | 10G1 (clone 10G1.3G8), purified hybridoma antibody (antibody, V domains shown, murine hybridoma IgG) VH: QIQLVQSGPELKKPGETVKISCKASGYPFTTYGMSWVKQAPGKGLKWMGWINTDSGVPTYADDFKGRFAFSLETSANTAYLQINSLKNEDAATYFCARNIYYGWGNFDYWGQGTILTVSS VL: DILMTQSPTTLSVTPGETVSLSCRASQDIYRNLHWYQQKSQGTPRLLIKHASDSISGIPSRFTGSGSGTDFTLSINSVKPEDEGIYYCLQGYSMPYTFGGGTKLEIK | 48.1% |  |  | 
3 | mAb1.v7 IgG (humanized 12F8) (antibody, V domains shown, human IgG1 N297G) VH: EVQLVQSGAEVKKPGASVKVSCKASGFTFTNNWMHWVRQAPGQGLEWIGMIHPNSGITNINEKFKNRVTMTTDTSTSTAYMELRSLRSEDTAVYYCRSDGTYEGYFDYWGQGTLVTVSS VL: DIQLTQSPSSLSASVGDRVTITCKASQNVGTAIVWYQQKPGKAPKVLIYSASTRYTGVPSRFSGSGSGTDFTLTISSLQPEDFATYYCQQYSSSPLTFGQGTKVEIKG | 27.3% |  |  | 
4 | mAb1.v7.NGS10 IgG (antibody, V domains shown, human IgG1 N297G) VH: EVQLVQSGAEVKKPGASVKVSCKASGFTFTNNFMHWVRQAPGQGLEWIGFIHANSGITNINEKFKNRVTMTTDTSTSTAYMELRSLRSEDTAVYYCRSDGIYEGYFDYWGQGTLVTVSS VL: DIQLTQSPSSLSASVGDRVTITCKASQNVGTAIVWYQQKPGKAPKVLIYSASTRYTGVPSRFSGSGSGTDFTLTISSLQPEDFATYYCQQYSSSPLTFGQGTKVEIKG |  | 55900 MedFI | 23600 MedFI | 64.6%
5 | mAb1.v7.NGS9 IgG (antibody, V domains shown, human IgG1 N297G) VH: EVQLVQSGAEVKKPGASVKVSCKASGFTFTNNFMHWVRQAPGQGLEWIGMIHANSGITNINEKFKNRVTMTTDTSTSTAYMELRSLRSEDTAVYYCRSDGVYEGYFDYWGQGTLVTVSS VL: DIQLTQSPSSLSASVGDRVTITCKASQNVGTAIVWYQQKPGKAPKVLIYSASTRYTGVPSRFSGSGSGTDFTLTISSLQPEDFATYYCQQYSSSPLTFGQGTKVEIKG |  | 56600 MedFI | 32200 MedFI | 49.4%
6 | mAb1.v7.NGS11 IgG (antibody, V domains shown, human IgG1 N297G) VH: EVQLVQSGAEVKKPGASVKVSCKASGFTFTNNFMHWVRQAPGQGLEWIGFIHANSGITNINEKFKNRVTMTTDTSTSTAYMELRSLRSEDTAVYYCRSDGVYEGYFDYWGQGTLVTVSS VL: DIQLTQSPSSLSASVGDRVTITCKASQNVGTAIVWYQQKPGKAPKVLIYSASTRYTGVPSRFSGSGSGTDFTLTISSLQPEDFATYYCQQYSSSPLTFGQGTKVEIKG |  | 63600 MedFI | 23600 MedFI | 63.5%
7 | h10G1 IgG (humanized 10G1) (antibody, V domains shown, human IgG1 N297G) VH: EIQLVQSGSELKKPGASVKVSCKASGYPFTTYGMSWVRQAPGQGLEWMGWINTDSGVPTYADDFKGRFVFSLDTSVSTAYLQISSLKAEDTAVYFCARNIYYGWGNFDYWGQGTLVTVSS VL: EIVMTQSPDFQSVTPKEKVTITCRASQDIYRNLHWYQQKPDQTPKLLIKHASDSISGIPSRFSGSGSGTDFTLTINSLEAEDAAAYYCLQGYSMPYTFGGGTKVEIKG |  | 65700 MedFI | 5870 MedFI | 38.2%
8 | 9H4, purified hybridoma antibody (antibody, V domains shown, murine hybridoma IgG) VH: EVQLLETGGGLVKSGGSLKLSCAASGFTFSDYYMYWVRQTPEKRLEWVAAISDDGTYTYYPDSVKGRFTISRDNANNYLYLQMSSLKSEDTAIYYCAKAGSYDYFDVWGAGTTVTVSS VL: DIVLTQSPASLAVSLGQRAIISCKASQSVTFADTGLMHWYQQKPGQQPKLLIYRASNLEVGVPTRFSGSGSGTDFTLNIHPVEEEDVATYYCQQSREYPWTFGGGTKLEIK | 28.5% |  |  | 
